From the supplement of paper PMC10065799, “High-throughput profiling of sequence recognition by tyrosine kinases and SH2 domains using bacterial peptide display” (eLife, 2023)

Key:
Fyn = Fyn (UniProt P06241); test: phosphorylation enrichment, bacterial display (enrichment ratio); higher = better substrate or ligand; peptides without Tyr show the background
AncSZ = test: as above
Fer (mouse) = test: as above
FGFR3 = FGFR3 (UniProt P22607); test: as above
Hck = Hck (UniProt P08631); test: as above
Sequence of Hck (P08631 whole entry, looked up): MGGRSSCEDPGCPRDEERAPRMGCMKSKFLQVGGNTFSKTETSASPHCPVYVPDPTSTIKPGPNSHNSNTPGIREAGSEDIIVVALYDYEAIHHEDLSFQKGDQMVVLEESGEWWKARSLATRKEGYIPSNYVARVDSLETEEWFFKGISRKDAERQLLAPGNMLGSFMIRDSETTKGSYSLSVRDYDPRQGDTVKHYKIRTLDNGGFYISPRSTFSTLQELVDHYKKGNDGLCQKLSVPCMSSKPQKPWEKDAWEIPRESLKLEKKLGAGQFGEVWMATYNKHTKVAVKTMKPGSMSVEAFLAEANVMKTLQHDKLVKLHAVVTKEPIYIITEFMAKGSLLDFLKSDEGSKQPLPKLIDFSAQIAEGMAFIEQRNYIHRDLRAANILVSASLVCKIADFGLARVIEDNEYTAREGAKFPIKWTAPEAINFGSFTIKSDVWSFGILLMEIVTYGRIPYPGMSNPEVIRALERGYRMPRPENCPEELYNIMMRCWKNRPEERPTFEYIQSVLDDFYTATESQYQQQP

c-Src = test: as above
EPHB2 = EPHB2 (UniProt P29323); test: as above
Sequence of EPHB2 (P29323 whole entry, looked up): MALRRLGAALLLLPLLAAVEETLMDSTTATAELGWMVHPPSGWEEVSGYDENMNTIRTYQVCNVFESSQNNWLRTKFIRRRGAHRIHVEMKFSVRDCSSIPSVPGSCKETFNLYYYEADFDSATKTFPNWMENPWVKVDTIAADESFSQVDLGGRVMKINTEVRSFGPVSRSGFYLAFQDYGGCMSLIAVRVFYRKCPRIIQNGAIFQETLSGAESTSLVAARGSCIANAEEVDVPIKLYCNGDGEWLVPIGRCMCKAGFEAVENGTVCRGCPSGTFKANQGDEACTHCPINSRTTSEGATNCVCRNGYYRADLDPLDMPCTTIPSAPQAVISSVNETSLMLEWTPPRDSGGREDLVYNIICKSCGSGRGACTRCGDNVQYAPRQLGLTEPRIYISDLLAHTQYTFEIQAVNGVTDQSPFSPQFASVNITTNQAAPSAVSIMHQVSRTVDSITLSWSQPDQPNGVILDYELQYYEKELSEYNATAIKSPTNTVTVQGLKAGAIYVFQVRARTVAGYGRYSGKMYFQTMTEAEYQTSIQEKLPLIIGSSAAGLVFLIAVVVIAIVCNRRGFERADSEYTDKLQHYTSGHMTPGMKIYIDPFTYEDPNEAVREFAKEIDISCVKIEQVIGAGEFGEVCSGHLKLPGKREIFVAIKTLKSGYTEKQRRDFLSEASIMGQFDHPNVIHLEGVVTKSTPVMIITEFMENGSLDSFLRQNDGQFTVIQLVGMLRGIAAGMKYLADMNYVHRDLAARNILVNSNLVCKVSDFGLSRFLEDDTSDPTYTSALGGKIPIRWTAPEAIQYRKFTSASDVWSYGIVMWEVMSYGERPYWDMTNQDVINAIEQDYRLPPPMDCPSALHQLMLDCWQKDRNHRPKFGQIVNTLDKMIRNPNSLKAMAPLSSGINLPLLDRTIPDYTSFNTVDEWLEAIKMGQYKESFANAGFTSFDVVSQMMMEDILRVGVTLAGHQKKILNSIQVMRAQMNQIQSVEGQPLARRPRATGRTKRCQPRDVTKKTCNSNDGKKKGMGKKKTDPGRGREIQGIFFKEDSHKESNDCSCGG

FGFR1 = FGFR1 (UniProt P11362); test: as above
Sequence of FGFR1 (P11362 whole entry, looked up): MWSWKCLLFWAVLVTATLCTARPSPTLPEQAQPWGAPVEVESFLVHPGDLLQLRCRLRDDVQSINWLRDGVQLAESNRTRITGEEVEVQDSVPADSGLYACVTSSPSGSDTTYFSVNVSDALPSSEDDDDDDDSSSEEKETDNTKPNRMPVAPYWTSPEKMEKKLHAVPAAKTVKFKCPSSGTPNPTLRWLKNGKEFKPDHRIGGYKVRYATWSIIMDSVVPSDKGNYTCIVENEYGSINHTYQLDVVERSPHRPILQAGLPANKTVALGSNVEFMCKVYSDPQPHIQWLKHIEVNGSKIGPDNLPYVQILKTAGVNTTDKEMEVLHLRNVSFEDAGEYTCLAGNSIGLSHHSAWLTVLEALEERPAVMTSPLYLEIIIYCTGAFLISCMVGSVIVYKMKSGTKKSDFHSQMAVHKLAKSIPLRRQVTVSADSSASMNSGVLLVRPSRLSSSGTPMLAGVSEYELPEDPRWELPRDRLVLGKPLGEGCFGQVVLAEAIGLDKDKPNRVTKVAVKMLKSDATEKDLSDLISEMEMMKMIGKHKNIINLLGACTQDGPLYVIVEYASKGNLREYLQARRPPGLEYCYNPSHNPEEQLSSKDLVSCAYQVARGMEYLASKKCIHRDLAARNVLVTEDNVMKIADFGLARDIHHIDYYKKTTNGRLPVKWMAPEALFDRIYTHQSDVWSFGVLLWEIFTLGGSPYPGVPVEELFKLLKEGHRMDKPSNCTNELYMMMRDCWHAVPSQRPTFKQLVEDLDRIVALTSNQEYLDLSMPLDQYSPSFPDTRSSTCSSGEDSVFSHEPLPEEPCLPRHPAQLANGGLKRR

Fes = Fes (UniProt P07332); test: as above
Sequence of Fes (P07332 whole entry, looked up): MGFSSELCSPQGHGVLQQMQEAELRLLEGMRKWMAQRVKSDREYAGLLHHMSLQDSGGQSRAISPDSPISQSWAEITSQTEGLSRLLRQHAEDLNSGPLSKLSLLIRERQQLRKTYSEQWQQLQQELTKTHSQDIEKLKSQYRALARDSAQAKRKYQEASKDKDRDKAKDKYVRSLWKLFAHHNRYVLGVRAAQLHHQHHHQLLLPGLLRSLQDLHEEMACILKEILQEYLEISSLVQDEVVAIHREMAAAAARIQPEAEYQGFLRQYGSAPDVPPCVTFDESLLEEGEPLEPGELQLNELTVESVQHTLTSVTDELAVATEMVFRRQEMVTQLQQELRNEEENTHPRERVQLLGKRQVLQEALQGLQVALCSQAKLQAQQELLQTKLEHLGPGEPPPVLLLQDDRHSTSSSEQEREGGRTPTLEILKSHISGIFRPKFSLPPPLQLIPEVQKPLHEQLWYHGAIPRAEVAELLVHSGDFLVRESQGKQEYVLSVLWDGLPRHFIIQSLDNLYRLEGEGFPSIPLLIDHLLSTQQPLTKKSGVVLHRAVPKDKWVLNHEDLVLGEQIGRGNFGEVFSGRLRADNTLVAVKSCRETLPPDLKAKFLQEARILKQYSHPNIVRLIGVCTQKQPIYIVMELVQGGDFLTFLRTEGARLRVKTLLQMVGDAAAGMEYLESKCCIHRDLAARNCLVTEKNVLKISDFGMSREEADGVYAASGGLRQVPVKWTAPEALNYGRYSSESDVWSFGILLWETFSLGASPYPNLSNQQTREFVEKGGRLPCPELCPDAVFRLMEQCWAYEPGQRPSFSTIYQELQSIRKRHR

c-Abl (mouse) = test: as above
Jak2 = Jak2 (UniProt O60674); test: as above
EPHB1 = EPHB1 (UniProt P54762); test: as above
MERTK = MERTK (UniProt Q12866); test: as above
Sequence of MERTK (Q12866 whole entry, looked up): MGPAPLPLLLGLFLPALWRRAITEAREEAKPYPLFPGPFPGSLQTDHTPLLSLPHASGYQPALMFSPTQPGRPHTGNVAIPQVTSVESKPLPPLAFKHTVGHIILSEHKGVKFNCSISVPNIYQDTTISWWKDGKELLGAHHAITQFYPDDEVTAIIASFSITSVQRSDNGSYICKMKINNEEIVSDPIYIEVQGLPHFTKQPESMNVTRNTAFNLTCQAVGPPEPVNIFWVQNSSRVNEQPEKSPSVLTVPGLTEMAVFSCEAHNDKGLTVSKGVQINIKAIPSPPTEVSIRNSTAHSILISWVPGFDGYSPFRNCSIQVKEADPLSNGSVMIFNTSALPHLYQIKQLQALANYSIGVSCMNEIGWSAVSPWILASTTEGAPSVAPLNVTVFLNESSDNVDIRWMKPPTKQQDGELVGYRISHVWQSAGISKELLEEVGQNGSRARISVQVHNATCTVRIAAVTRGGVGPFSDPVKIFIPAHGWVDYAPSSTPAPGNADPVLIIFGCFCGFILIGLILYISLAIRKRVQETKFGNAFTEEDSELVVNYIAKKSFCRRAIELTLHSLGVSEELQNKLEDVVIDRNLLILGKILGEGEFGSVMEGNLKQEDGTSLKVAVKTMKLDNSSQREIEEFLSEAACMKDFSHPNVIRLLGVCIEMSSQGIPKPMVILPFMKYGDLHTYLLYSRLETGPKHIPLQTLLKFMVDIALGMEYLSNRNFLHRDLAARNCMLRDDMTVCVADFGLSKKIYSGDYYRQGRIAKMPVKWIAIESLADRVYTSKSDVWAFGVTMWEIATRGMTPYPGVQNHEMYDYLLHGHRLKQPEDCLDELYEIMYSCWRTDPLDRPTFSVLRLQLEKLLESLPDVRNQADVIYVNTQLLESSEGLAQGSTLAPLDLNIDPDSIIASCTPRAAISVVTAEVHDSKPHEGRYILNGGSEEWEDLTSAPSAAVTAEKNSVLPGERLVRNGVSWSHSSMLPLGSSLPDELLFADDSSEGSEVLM

Grb2 SH2 = Grb2 SH2 (UniProt P62993); test: SH2 binding enrichment of the phosphorylated peptide, bacterial display (enrichment ratio); higher = better substrate or ligand; peptides without Tyr show the background
Sequence of Grb2 SH2 (P62993 whole entry, looked up): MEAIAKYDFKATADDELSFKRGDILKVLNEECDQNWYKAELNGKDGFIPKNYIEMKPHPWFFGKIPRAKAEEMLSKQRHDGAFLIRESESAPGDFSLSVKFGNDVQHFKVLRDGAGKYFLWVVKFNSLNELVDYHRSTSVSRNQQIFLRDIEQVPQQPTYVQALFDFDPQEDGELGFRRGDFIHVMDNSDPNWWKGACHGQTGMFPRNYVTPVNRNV

c-Src SH2 = test: as above
SHP2-C SH2 = test: as above
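For SH2 binding enrichment of the phosphorylated peptide, bacterial display in this document: peptide library displayed on the E. coli surface as eCPX fusions, selected cells deep-sequenced, score is each peptide's frequency after selection divided by its frequency in the input.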
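For phosphorylation enrichment, bacterial display in this document: 11-residue human phosphosite peptides and single-mutation variants displayed on the E. coli surface, counted by deep sequencing, each peptide's frequency after selection divided by its frequency in the unselected input library; frequency after pTyr selection over input frequency; kinase dosed for 20-30% of maximal phosphorylation in three min.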

Sequence of Fyn (P06241 whole entry, looked up): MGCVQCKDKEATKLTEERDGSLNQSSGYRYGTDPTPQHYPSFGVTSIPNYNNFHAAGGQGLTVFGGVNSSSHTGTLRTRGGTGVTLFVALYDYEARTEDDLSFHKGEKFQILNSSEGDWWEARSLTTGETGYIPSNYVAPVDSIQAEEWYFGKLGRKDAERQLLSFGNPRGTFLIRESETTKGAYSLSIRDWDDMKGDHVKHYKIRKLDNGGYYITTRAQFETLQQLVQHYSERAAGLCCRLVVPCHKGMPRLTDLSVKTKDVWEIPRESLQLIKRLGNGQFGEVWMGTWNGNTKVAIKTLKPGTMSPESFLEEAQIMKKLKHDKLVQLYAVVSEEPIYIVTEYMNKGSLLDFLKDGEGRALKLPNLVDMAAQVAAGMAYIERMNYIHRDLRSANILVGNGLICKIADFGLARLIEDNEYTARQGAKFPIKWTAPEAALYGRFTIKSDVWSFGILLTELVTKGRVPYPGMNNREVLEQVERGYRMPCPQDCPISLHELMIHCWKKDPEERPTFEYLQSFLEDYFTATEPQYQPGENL

Row | Sequence | phosphorylation enrichment (Fyn) | phosphorylation enrichment (AncSZ) | phosphorylation enrichment (Fer (mouse)) | phosphorylation enrichment (FGFR3) | phosphorylation enrichment (Hck) | phosphorylation enrichment (c-Src) | phosphorylation enrichment (EPHB2) | phosphorylation enrichment (FGFR1) | phosphorylation enrichment (Fes) | phosphorylation enrichment (c-Abl (mouse)) | phosphorylation enrichment (Jak2) | phosphorylation enrichment (EPHB1) | phosphorylation enrichment (MERTK) | SH2 binding enrichment (Grb2 SH2) | SH2 binding enrichment (c-Src SH2) | SH2 binding enrichment (SHP2-C SH2)
1 | QEVLEYFMKQM [PIK3CA_Y1038_A1035V] | 0.999 | 2.18 | 0.719 | 1.68 | 0.95 | 0.963 | 0.993 | 0.954 | 1.94 | 1.31 | 2.27 | 1.15 | 0.68 | 0.663 | 0.479 | 0.584
2 | QGLRLYRSHLA [BTK_Y617_P619S] | 0.571 | 0.935 | 0.527 | 0.5 | 0.38 | 0.51 | 0.408 | 0.552 | 1.04 | 0.801 | 0.75 | 0.718 | 0.417 | 1.21 | 1.03 | 0.888
3 | QGRQTYLLQPA [DDR2_Y813_P815L] | 0.462 | 0.498 | 0.388 | 0.484 | 0.411 | 0.701 | 0.529 | 0.63 | 0.514 | 0.693 | 0.726 | 0.5 | 0.555 | 1.21 | 0.618 | 0.895
4 | QIGRKYKKVRF [F8_Y442_R437Q] | 0.795 | 0.84 | 0.836 | 1.11 | 1.19 | 1.03 | 0.44 | 0.807 | 1.04 | 0.502 | 1.62 | 0.902 | 0.923 | 0.675 | 0.321 | 0.622
5 | QKFMAYLSQGW [HLCS_Y236_G241W] | 0.639 | 1.19 | 0.86 | 1.14 | 0.501 | 0.439 | 1.05 | 0.668 | 1.32 | 0.903 | 1.75 | 0.812 | 0.83 | 0.917 | 0.689 | 1.5
6 | QKLPSYILENN [VPS13B_Y2774] | 0.629 | 1.53 | 0.681 | 0.938 | 0.792 | 0.499 | 0.701 | 0.625 | 1.94 | 1.11 | 1.49 | 0.787 | 0.529 | 0.755 | 0.607 | 0.762
7 | QMVGMYASSYM [AVPR2_Y124] | 1.11 | 1.27 | 1.07 | 0.783 | 1.3 | 1.45 | 1.09 | 0.611 | 1.07 | 0.921 | 0.659 | 1.21 | 2.74 | 0.806 | 1.23 | 0.946
8 | QNTGDDYDLYG [PTPN11_Y62_Y62D] | 1.35 | 2.09 | 0.674 | 1.51 | 1.86 | 1.99 | 1.63 | 0.82 | 1.56 | 0.841 | 1.9 | 0.985 | 0.697 | 0.92 | 0.58 | 0.803
9 | QNTGDYCDLFG [PTPN11_Y62_Y63C_YF] | 0.681 | 3.53 | 0.966 | 3.7 | 0.696 | 0.789 | 8.46 | 5.82 | 1.41 | 1.17 | 1.3 | 9.89 | 0.806 | 0.827 | 0.723 | 0.491
10 | QNTGDYYDLYG [PTPN11_Y62] | 5.48 | 5.36 | 1.31 | 16.1 | 4.7 | 5.07 | 17.8 | 17.1 | 1.29 | 1.1 | 5.11 | 16.7 | 4.37 | 0.911 | 0.849 | 0.725
11 | QPDFLYDHIQP [TRRAP_Y862] | 6.9 | 2.58 | 12 | 1.45 | 9.82 | 5.86 | 3.31 | 0.622 | 1.74 | 0.928 | 1.21 | 5.27 | 7.66 | 0.964 | 0.376 | 0.369
12 | QPGDIYHQTWA [GBA_Y244] | 3.11 | 0.989 | 1.3 | 2.69 | 3.66 | 3.42 | 0.88 | 3.42 | 0.963 | 2.9 | 0.938 | 0.825 | 2.84 | 0.626 | 0.439 | 0.352
13 | QRCYVYYYSYL [PTEN_Y176_R173C] | 1.44 | 1.86 | 1.22 | 2.56 | 1.35 | 3.53 | 1.45 | 2.09 | 2.08 | 1.53 | 4.07 | 1.18 | 2.61 | 0.927 | 0.587 | 0.542
14 | QRTMKYTTATG [MCCC1_Y41] | 0.475 | 0.602 | 0.722 | 0.518 | 0.551 | 0.411 | 0.7 | 0.692 | 0.669 | 0.727 | 0.449 | 0.314 | 0.524 | 0.85 | 0.473 | 0.432
15 | QSMEPYTKQQL [STAT3_Y640_V637M] | 0.462 | 0.851 | 0.546 | 0.692 | 0.696 | 0.401 | 0.66 | 0.51 | 1.02 | 0.445 | 0.736 | 0.454 | 0.579 | 0.887 | 0.499 | 0.851
16 | QSSALYEDRYL [ASS1_Y83] | 0.997 | 1.15 | 7.79 | 0.74 | 4.44 | 1.2 | 2.45 | 0.56 | 1.12 | 0.61 | 1.01 | 3.12 | 1.1 | 0.711 | 0.653 | 0.493
17 | QSSEGYGLGDR [KIAA1210_Y564] | 0.842 | 1.03 | 0.871 | 0.677 | 0.989 | 1 | 0.754 | 0.538 | 1.06 | 1.27 | 1.14 | 0.731 | 0.847 | 0.695 | 0.419 | 0.861

Row | Sequence | phosphorylation enrichment (Fyn) | phosphorylation enrichment (AncSZ) | phosphorylation enrichment (Fer (mouse)) | phosphorylation enrichment (FGFR3) | phosphorylation enrichment (Hck) | phosphorylation enrichment (c-Src) | phosphorylation enrichment (EPHB2) | phosphorylation enrichment (FGFR1) | phosphorylation enrichment (Fes) | phosphorylation enrichment (c-Abl (mouse)) | phosphorylation enrichment (Jak2) | phosphorylation enrichment (EPHB1) | phosphorylation enrichment (MERTK) | SH2 binding enrichment (Grb2 SH2) | SH2 binding enrichment (c-Src SH2) | SH2 binding enrichment (SHP2-C SH2)
18 | QYPDVYAREEV [CRX_Y67] | 1.66 | 3.78 | 1.93 | 1.66 | 2.18 | 3.8 | 1.82 | 0.959 | 4.98 | 3.34 | 5.06 | 1.57 | 1.8 | 1.05 | 0.49 | 0.812
19 | RAADFYSQQMA [GBP6_Y334_YF] | 0.427 | 0.798 | 0.538 | 0.671 | 0.375 | 0.675 | 0.468 | 0.537 | 0.769 | 1.04 | 1.16 | 0.425 | 0.56 | 0.69 | 0.506 | 0.691
20 | RAEAPYLLVSN [LRIG1_Y1054_Q1053P] | 0.654 | 0.655 | 0.699 | 1.18 | 0.564 | 1.79 | 0.36 | 1.72 | 0.775 | 0.556 | 0.748 | 0.4 | 0.456 | 0.847 | 0.695 | 0.645
21 | RAHARYCADAC [ACOT4_Y52_R57C] | 0.344 | 0.601 | 0.518 | 0.395 | 0.45 | 0.41 | 0.499 | 0.436 | 0.677 | 0.889 | 0.61 | 0.402 | 0.437 | 0.915 | 0.872 | 0.898
22 | RAILNYIASKY [GSTA3_Y74] | 0.719 | 1.44 | 0.748 | 0.89 | 0.594 | 0.81 | 0.795 | 0.652 | 1.59 | 0.92 | 0.942 | 0.665 | 0.466 | 1.19 | 1.17 | 0.747
23 | RASDYYSQQMA [GBP6_Y334_A331S] | 0.422 | 0.891 | 0.402 | 1.89 | 0.611 | 0.41 | 0.585 | 2.42 | 0.744 | 0.458 | 0.571 | 0.966 | 0.581 | 0.887 | 0.521 | 0.651
24 | RAVLLYEYVGK [NATD1_Y45] | 6.98 | 3.07 | 19.4 | 3.99 | 10.4 | 5.21 | 35.4 | 3.61 | 4.82 | 1.24 | 0.857 | 28.2 | 11.4 | 1.19 | 1.02 | 1.11
25 | RDMMDYMLQGV [CYP21A2_Y259] | 0.673 | 1.2 | 0.612 | 0.869 | 0.581 | 1.09 | 0.827 | 0.73 | 1.19 | 0.962 | 1.63 | 1.34 | 0.488 | 0.812 | 0.531 | 0.997
26 | REAMEYLESKQ [BTK_Y511_C506R] | 0.703 | 1.62 | 0.704 | 0.794 | 0.505 | 0.701 | 0.573 | 0.754 | 1.15 | 1.15 | 1.09 | 0.657 | 0.501 | 0.706 | 0.491 | 0.678
27 | REGAKYVSHCA [ASS1_Y113_G117C] | 0.822 | 0.776 | 0.633 | 0.445 | 0.489 | 0.516 | 0.506 | 0.643 | 0.86 | 0.825 | 0.652 | 0.618 | 0.504 | 1.04 | 0.676 | 0.723
28 | REGAKYVSHGA [ASS1_Y113] | 0.378 | 0.5 | 0.566 | 0.501 | 0.399 | 0.275 | 0.4 | 0.385 | 0.628 | 0.339 | 0.47 | 0.553 | 0.403 | 0.602 | 0.415 | 0.322
29 | RELGEYGLQAF [ALDH2_Y497_YF] | 0.775 | 1.07 | 0.816 | 0.793 | 0.772 | 0.704 | 1.07 | 0.653 | 1.66 | 0.951 | 0.724 | 0.707 | 1.87 | 1.15 | 0.758 | 1.04
30 | REVPVYTFSEP [FAM120B_Y368_D370Y_YF] | 11.5 | 1.83 | 11.1 | 1.33 | 4.36 | 9.04 | 1.06 | 1.14 | 1.54 | 1.72 | 1.1 | 1.9 | 3.58 | 1.16 | 0.496 | 0.8
31 | RFLRGYRQHAY [HLA-A_Y137_D140H] | 0.654 | 1.1 | 1.02 | 0.849 | 1.06 | 1.11 | 0.879 | 0.623 | 1.04 | 1.31 | 0.979 | 0.787 | 1.33 | 0.539 | 0.424 | 0.57
32 | RGFRQDAFDGK [HLA-A_Y140_YF] | 0.414 | 0.575 | 0.487 | 0.73 | 0.396 | 0.633 | 0.475 | 0.488 | 0.633 | 0.935 | 0.461 | 0.454 | 0.559 | 0.711 | 0.412 | 1.05
33 | RGGDSYGGPPR [RBMX_Y190_R187G] | 0.524 | 0.498 | 0.441 | 0.58 | 0.656 | 0.592 | 0.5 | 0.454 | 0.848 | 0.735 | 0.43 | 0.399 | 0.586 | 1.96 | 0.75 | 0.798
